By Km is commonly meant the concentration of substrate that gives half-maximal velocity.

Substrate in this series: O=c1ccn([C@@H]2O[C@H](COP(=O)(O)O)[C@@H](O)[C@H]2O)c(=O)[nH]1
The experiment in a line: continuous phosphate release, EnzChek (MESG/purine nucleoside phosphorylase), A360, Michaelis-Menten fit. The class given is biochemical, Escherichia coli. Conditions: no GlnK, no effectors, 20 mM Hepes pH 7.4, 50 mM KCl, 5 mM MgCl2, 2 mM NAG, 2 mM DTT, 25 °C.

B1: UmpH (Escherichia coli K-12) (protein)
chain: MTIKNVICDIDGVLMHDNVAVPGAAEFLHGIMDKGLPLVLLTNYPSQTGQDLANRFATAGVDVPDSVFYTSAMATADFLRRQEGKKAYVVGEGALIHELYKAGFTITDVNPDFVIVGETRSYNWDMMHKAAYFVANGARFIATNPDTHGRGFYPACGALCAGIEKISGRKPFYVGKPSPWIIRAALNKMQAHSEETVIVGDNLRTDILAGFQAGLETILVLSGVSSLDDIDSMPFRPSWIYPSVAEIDVI
notes: untagged; synthetic umpH gene in pET29a, expressed in E. coli BL21 (λDE3); band approximately 30 kDa
Consider B1, for which the Km came to 278 ± 27 µM.

The values above are taken from publication PMC11617674, “The activity of the ribonucleotide monophosphatase UmpH is controlled by interaction with the GlnK signaling protein in Escherichia coli” (The Journal of Biological Chemistry, 2024).
